Assay results published in a protein production outcome set (Wang et al. 2014).

Assay: label from the status in PepcDB records

Row | Sequence | protein production
1 | FDASTLYVPEDFLNSCTPGMRKWWQIKSQNFDLVICYKVGKFYELYHMDALIGVSELGLVFMKGNWAHSGFPEIAFGRYSDSLVQKGYKVARVEQTETPEMMEARCRKMAHISKYDRVVRREICRIITKGTQTYSVLEGDPSENYSKYLLSLKEKEEDSSGHTRAYGVCFVDTSLGKFFIGQFSDDRHCSRFRTLVAHYPPVQVLFEKGNLSKETKTILKSSLSCSLQEGLIPGSQFWDASKTLRTLLEEEYFREKLSDGIGVMLPQVLKGMTSESDSIGLTPGEKSELALSALGGCVFYLKKCLIDQELLSMANFEEYIPLDSDTVSTTRSGAIFTKAYQRMVLDAVTLNNLEIFLNGTNGSTEGTLLERVDTCHTPFGKRLLKQWLCAPLCNHYAINDRLDAIEDLMVVPDKISEVV | failed
2 | MQDSRPHPHDWNVSTDEAKRIQRRLASEVTERALPDGGETVAGIDVSVRDDTAQAAVSVLRLPELDVVDEATHRCEVPFPYVPGLLSFREMPAVLPALERLHSTPDVFVTDSHGAAHPRRFGLACHLGVLLDAPAIGVAKSILVGAPQGELGPEKGSRVPLVDDGETVGTVLRTRTDVNPVYVSVGHRCTLDGAADLMLDCSPRYKIPEPTRQAHKLSRAEGLEHHHHHH | not failed
3 | MIRPARHIAAMSPYALAQLKAPAGKRLISLSQNESLRPPSRRAIEAAARAGDAGHLYPDPDWSALRAALSGLHGIPVEGILCGNGSMELIACLAQAFADERNAILAPAHGYPFFRSAAQMARARFDLAAERDRHVCVDAMLAAVQPDTRIVFVANPGNPTGTRIPRHELVRLREGLPDDTLLVIDEAYGEFADHLGEAMFDLVGRCDTVVLRTFSKAYGLAGMRVGWGLFPPEIARELRKVMNPNNIAVAGQLAATAALADQDYMVETCRQTAALRDGLRARLSKAGYDVPESFSNFVLIRMESPDDARRADEALRAEGVFLRPQGGVGLADSLRVTIGPAEKIDIAAGLLERWAEGKKT | failed
4 | MKGFNIYTDESTLVSIGDDAGVYEHNGIIWVYTVDIITPVVNDPYLWGAISTANALSDVYAMGGIPVNALAISCFNNCELDIEIFREVIRGALDKLREAKTVLLGGHTIDDKEPKFGLSVAGICPEGKYITQSGAQVGQLLILTKPIGTGILIKGLKEGILKEEDINEAIENMLALNDKARNLMLSLDATACTDVTGFGLLGHAWNICKNSNIGARIFFEKVPYYQLSENLVKKKIYPKGAIENLNFVKNYLKSNLDNWKLILLSDPVTSGGLLFTINKEKLEKIDETAKELEVNYWIIGETIAENVLEVL | not failed
5 | MDYSNTYGAYGGGGFLPESPARTGGNASTRFGVGSGSSLRDQRRSLLPVRVADLVHAVHDPVTNTFVLRDENEHQSITISEGSIVKVVAYVEELREQPLDLLWLLDDRSGEMIWARMASTSSSSLAALEQSGILVRVFGQLLEVDGRRVLNVRAIRKADGEVELRYHENLCQLSKLQLIRGYPTAGNALAGASSSPASPKAGPSKAVHRSSLGSGAPKEMAQQAPGLEIPAAFPPEHFKVLKCIREETARNRDAMLTDIAQRIALSTTKVRGICDALQNEGHIYCTLDDDTFRASSS | not failed
6 | MEIKAMFRDVSLSSRNFSEMLSRESKVVAALAAKSPLMAHANWRLKGNSLEEATLYPAFDADGSPSTPALAVLNEEQRGKKHSASHAAIWNGNTRPNEGASMSCHVSDEKVLPDRFSTRLGVPDCYAKSQDLADVVTTIVAAFNPLVVEASPEGYFDKQVFDDKPGVGWMLYLPKVITQQQVPEARALIPVSAKGKQTGTIIVSVTDAPFSVDNPEHVAIANRIEIRLVDQDLLPAYVDI | not failed
7 | MTELAQLQASAEQAAALLKAMSHPKRLLILCMLSGSPGTSAGELTRITGLSASATSQHLARMRDEGLIDSQRDAQRILYSIKNEAVNAIIATLKNVYCP | not failed
8 | MGHHHHHHSHMAILIAFMKQRRMGLNDFIQKIANNSYACKHPEVQSILKISQPQEPELMNANPSPPPSPSQQINLGPSSNPHAKPSDFHFL | failed
9 | MRNRTLADLDRVVALGGGHGLGRVLSSLSSLGSRLTGIVTTTDNGGSTGRIRRSEGGIAWGDMRNCLNQLITEPNVASAMFEYRFGGNGELSGHNLGNLMLKALDHLSVRPLEAINLIRNLLKVDTHLIPMSEHPVDLMAIDDQGHEVYGEVNIDQLTTPIQELLLTPNVPATREAVHAINEADLIIIGPGSFYTSLMPILLLKEIAQALRRTPAPMVYIGNLGRELSLPAANLKLESKLAIMEQYVGKKVIDAVIVGPKVDVSAVKERIVIQEVLEASDIPYRHDRQLLHNALEKALQALGLEHHHHHH | failed
